Measured values: IntAct's records for PubMed 12813456

B1: Protein E7 (Human papillomavirus type 16), P03129 (parent)
chain: MHGDTPTLHEYMLDLQPETTDLYCYEQLNDSSEEEDEIDGPAGQAEPDRAHYNIVTFCCKCDSTLRLCVQSTHVDIRTLEDLLMGTLGIVCPICSQKP

Variants of: B1
Settings: with kat2b_human KAT2B

How did the “effect of a mutation on the interaction” value turn out when L67A was run?
Its value is “decreasing interaction strength”.
